The values that follow are results of earlier work, collected in US12246031B2, “Compositions and methods for tumor immunotherapy” (CHECKMATE PHARMACEUTICALS, INC., priority 2018, dated 2025).

The target in the data set is PD-L1 (Homo sapiens, UniProt Q9NZQ7). The conditions noted are these: anti-PD-L1 antibody in clinical development.
Chain of PD-L1 (Q9NZQ7 19-290): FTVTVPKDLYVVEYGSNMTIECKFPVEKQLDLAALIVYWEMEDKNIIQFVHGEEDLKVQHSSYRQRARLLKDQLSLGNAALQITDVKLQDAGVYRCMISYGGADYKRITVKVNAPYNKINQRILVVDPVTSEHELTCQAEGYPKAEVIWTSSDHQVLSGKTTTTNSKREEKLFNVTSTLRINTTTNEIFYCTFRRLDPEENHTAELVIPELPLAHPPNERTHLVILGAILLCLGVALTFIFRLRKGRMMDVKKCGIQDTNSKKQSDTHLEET

The term Kd denotes a measure of binding affinity in units of concentration. For “MPDL3280A: anti-PD-L1 antibody under development in human clinical trials (Genetech/Roche)”, the Kd is 0.4 nM.
